In the experiment the target is T1, BSAP-1 (BF638R_1646), recombinant soluble protein with N-terminal His tag (Bacteroides fragilis 638R, UniProt E1WTV1 17-372).
T1 construct: BSAP-1 of Bacteroides fragilis 638R (BF638R_1646, GenBank CBW22174.1), without the N-terminal signal peptide and the lipidated cysteine (C16); the protein ends at P372; a Ser-Ser-Gly linker follows the His tag; Limits follow from 'excluding the signal peptide and conserved cysteine' (C16) and the CTD's end at P372; no cleavage of the tag is told; also called full-length BSAP-1; purified BSAP-1; …
T1 sequence: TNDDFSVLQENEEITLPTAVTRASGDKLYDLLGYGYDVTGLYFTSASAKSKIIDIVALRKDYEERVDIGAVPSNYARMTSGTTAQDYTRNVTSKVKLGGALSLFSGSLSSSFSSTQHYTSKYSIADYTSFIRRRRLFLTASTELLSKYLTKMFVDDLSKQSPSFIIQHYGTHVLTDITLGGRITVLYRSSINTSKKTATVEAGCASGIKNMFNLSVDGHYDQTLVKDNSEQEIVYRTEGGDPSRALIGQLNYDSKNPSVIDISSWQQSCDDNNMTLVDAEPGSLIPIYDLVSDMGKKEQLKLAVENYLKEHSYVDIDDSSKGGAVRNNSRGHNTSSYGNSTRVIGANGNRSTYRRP
Kind of experiment: cryo-EM structure; peak 1 fractions of the BSAP-1 pull-down, in DDM, graphene oxide coated grids; map of the complex ~7 Å, local refinement on B1R^S 4.45 Å. The following applies: one partner purified.

B1: B1R^S, BSAP-1 receptor (BF9343_1563), untagged, overexpressed in Bacteroides thetaiotaomicron (receptor, Bacteroides fragilis NCTC 9343, UniProt Q5LEV6 1-556, looked up)
chain: QTVYDAAKITGKDLNGTARFVGMGGAMGALGGDISTIGTNPAGIGIYRSNDFMTSFGFSSYGTESKYLGDKFKSDKIQGSFDNLGFVFASKIGNETSLRYVNFGFNYHKAKSFYKNMNMKGGLGNSSQTYQMAQQASGITKWGDYPYDDPEIGWLSILGYDGWLISDITTDKMNAAGKPNSPYVDKDGNQRYDANGKPLYTTPGNYYGMYDDGVANFHSQERGGIDQYDFNVAFNFNDRFYLGLTLGAYAVDYSKYTYYSEAYTGANAPQNYNLRSWNKVRGSGFDLKLGTIIRPFENSPFRIGLAIHTPTFYNLDYKTSARVESDVLNVETGKIDQWSVDTRDKLPGNGDMVREFRLQTPWTYNVSLGYTIGTSLALGAEYEYQDYSTMKFRGPTGSSSEFTFENSTRPMMKGVNTLRLGLEYKVIPQFALRAGYNYTSAIFHGDAFKDLPYYSIQTDTDWANTKALSNYTLGIGYRGSVFYADLAYKFSTYNEDFYPFVNKYEENNATTVLTPETTKVTNTRSQVLFTLGLRF
notes: B1R^S, outer membrane beta-barrel protein of Bacteroides fragilis NCTC 9343 (BF9343_1563, GenBank CAH07344.1); theoretical molecular weight 62 kDa; untagged; in the pull-down it stood in a membrane fraction, in microscopy on cells
For the molecule B1, the stoichiometry N – broadly, a count of units in the complex or per binding partner – was determined as 1.

These data come from paper PMC12853789, “Identification of receptor-binding domains of Bacteroidales antibacterial pore-forming toxins” (The Journal of Biological Chemistry, 2025).
